According to patent US20240360226A1 (AstraZeneca / MedImmune, published 2024):

T1: HER4 (Homo sapiens (Human), UniProt Q15303 26-651)
T1 construct: also called EGFR HER family protein HER4
T1 sequence: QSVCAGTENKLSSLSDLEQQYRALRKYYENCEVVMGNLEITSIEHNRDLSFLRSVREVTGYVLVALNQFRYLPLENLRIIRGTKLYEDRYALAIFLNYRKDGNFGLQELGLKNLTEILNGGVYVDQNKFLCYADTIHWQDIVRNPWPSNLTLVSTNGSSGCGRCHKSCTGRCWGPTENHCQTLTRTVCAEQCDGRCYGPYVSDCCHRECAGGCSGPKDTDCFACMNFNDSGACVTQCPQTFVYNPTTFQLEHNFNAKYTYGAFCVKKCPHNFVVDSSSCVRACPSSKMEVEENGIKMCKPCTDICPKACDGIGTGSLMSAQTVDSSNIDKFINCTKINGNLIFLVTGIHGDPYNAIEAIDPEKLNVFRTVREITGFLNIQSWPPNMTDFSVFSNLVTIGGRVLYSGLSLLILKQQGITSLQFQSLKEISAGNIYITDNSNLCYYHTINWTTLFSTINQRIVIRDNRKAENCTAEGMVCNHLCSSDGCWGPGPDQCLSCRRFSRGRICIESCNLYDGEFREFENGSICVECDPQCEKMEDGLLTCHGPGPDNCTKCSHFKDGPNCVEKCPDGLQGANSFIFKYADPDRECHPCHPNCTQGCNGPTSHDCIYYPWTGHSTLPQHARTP


Tests used:
[1] = target: EGFR on human tumour cells (A431, NCI-H1975, HCC827) (human) (UniProt P00533); assay: cell-based or functional assay
Mouse cMET (recombinant) = Mouse cMET (recombinant) (mouse, UniProt P16056 25-931, limits assumed); assay: ELISA, antigen coated at 1 ug/mL, anti-human Fab-HRP detection, A450
Mouse cMET (recombinant), sequence (P16056 25-931 limits assumed): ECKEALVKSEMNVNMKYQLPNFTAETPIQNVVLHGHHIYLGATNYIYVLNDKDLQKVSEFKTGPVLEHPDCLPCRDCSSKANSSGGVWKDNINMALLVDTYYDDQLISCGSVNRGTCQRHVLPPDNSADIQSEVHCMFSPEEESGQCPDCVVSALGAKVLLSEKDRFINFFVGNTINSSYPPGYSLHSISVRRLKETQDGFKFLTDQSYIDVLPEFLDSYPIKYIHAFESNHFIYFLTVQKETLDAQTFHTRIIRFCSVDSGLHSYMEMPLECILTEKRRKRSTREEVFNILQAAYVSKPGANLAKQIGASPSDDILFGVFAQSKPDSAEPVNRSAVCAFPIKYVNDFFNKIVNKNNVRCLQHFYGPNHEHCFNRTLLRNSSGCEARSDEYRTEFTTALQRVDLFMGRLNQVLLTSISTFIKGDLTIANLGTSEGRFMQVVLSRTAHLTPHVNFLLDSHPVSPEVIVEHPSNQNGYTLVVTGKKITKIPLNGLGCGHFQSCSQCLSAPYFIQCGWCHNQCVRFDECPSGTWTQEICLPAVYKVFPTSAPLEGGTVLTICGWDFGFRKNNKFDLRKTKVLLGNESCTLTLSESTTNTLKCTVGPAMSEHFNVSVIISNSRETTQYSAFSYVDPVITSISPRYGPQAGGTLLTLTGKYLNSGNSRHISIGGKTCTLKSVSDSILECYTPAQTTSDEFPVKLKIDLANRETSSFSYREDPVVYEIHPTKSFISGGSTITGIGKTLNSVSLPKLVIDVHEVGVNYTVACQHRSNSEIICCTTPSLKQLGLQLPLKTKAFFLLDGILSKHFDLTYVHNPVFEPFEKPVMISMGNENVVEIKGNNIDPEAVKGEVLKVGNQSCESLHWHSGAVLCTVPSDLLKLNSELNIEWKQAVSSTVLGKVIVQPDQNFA
Description: (§1) Specificity for EGFR and cMET species paralogs and closely related family members was determined by ELISA. Briefly, antigen solutions were prepared in PBS at 1 μg/mL and 50 microliters was coated onto half area ELISA assay plates. Plates were washed and blocked with 1% BSA in PBS containing 0.005% Tween-20 (PBS-T) for one hour at room temperature. […] Wells were incubated with 50 microliters of the indicated primary antibodies diluted in PBS-T in a 1:3 dilution series, starting at 10 μg/mL and ending at 0.002 ug/mL, except for the HER4 binding mAb control, MAB1131, for which the series started at 1 μg/mL. The wells were washed 4 times in PBS-T, then 50 μl of goat anti-human Fab HRP-labeled secondary antibody, diluted 1:5000 in PBS-T, was added to each well and incubated for one hour at room temperature. […] 50 microliters of TMB stop solution was added to all wells and the absorbance was read at 450 nm on a SpectraMax M5 microplate reader. Data were analyzed in the SoftMax Pro 5 software and plotted using GraphPad Prism 7 graphing software.
(§2) To determine the species cross reactivity, ELISA assays were carried out as described above.

HER2 = target: T2, HER2 (Homo sapiens (Human), UniProt P04626 23-652); assay: as above
T2 construct: also called EGFR HER family protein HER2

HER3 = target: T3, HER3 (Homo sapiens (Human), UniProt P21860 20-643); assay: as above
T3 construct: also called EGFR HER family protein HER3

HER4 = target: T1, HER4; assay: as above
[2] = target: T4, Cynomolgus monkey cMET (recombinant, soluble monomeric) (cynomolgus monkey, UniProt A0M8R7 25-932 (Papio anubis entry)); assay: SPR (Biacore T200), antibody captured on anti-human IgG, soluble monomeric antigen as analyte, 25 C
T4 construct: also called cyno c-Met
T4 sequence (A0M8R7 25-932 S170N/I621T): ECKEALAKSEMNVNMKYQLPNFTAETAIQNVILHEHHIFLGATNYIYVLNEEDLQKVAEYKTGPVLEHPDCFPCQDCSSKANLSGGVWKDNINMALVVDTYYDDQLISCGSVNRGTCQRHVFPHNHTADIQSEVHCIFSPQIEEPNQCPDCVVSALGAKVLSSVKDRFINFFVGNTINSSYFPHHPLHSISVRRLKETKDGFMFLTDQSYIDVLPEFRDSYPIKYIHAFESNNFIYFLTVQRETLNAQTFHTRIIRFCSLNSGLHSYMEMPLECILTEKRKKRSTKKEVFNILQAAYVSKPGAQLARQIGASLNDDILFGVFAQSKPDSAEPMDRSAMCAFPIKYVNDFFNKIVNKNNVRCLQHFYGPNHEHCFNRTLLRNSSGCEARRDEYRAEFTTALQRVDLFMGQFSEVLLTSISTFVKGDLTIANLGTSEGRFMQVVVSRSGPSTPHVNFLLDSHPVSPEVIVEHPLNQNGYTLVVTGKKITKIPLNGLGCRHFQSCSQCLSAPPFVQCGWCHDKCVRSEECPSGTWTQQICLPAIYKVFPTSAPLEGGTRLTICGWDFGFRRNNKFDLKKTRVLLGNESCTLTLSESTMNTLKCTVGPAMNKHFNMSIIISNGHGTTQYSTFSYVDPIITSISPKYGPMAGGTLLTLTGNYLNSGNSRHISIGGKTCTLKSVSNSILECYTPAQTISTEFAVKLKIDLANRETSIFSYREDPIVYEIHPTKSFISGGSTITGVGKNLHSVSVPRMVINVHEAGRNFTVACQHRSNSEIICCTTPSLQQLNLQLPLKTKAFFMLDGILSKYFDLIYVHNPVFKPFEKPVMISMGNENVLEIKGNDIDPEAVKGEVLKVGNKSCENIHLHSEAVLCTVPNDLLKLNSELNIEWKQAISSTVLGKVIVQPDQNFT
Description: (§3) Mouse anti-human IgG was immobilized on a CM4 sensor chip with a final surface density of ˜2000 resonance units (RUs). A reference flow cell surface was also prepared on this sensor chip using identical immobilization protocol. Test and control article antibodies were prepared at 5-20 nM in instrument buffer (HBS-EP buffer; 0.01M HEPES, pH 7.4, 0.15M NaCl, 3 mM EDTA, and 0.005% P-20), along with 3-fold serial dilutions of purified EGFR (0.27-200 nM human, 0.4-900 nM cyno, and 4-1000 nM murine) or cMET proteins (0.27 to 66 nM human and 0.27-22 nM cyno) in instrument buffer. A sequential approach was utilized for kinetic measurements. Antibodies were first injected over the capture surface, at a flow rate of 10 μL/minute. Once the binding of the captured antibody stabilized, a single concentration of the analyte was injected over both capture and reference surfaces, at a flow rate of 75 μL/minute. The resulting binding response curves yielded the association phase data. Following the injection of analyte, the flow was then switched back to instrument buffer for 15 minutes to permit the collection of dissociation phase data, followed by a 1-minute pulse of 10 mM glycine, pH 1.5, to regenerate the antibody-captured surface on the chip. Binding responses against test and control article antibodies were recorded from duplicate injections of each concentration of analyte. In addition, several buffer injections were interspersed throughout the injection series. Select buffer injections were used along with the reference cell responses to correct the raw data sets for injection artifacts and/or nonspecific binding interactions, commonly referred to as “double referencing”. Corrected binding data were globally fit to a 1:1 binding model (Biacore T200 Evaluation software 2.0, GE Healthcare, Pittsburgh, PA).
(§4) Kinetic measurements to soluble monomeric forms of EGFR and cMET were performed using a BIACore instrument.

[3] = target: T5, Human EGFR (recombinant, soluble monomeric) (human, UniProt P00533 25-645); assay: as above
T5 construct: also called EGFR antigen; recombinant human EGFR
Description: as §3, §4

[4] = target: T6, Cynomolgus monkey EGFR (recombinant, soluble monomeric) (cynomolgus monkey, UniProt P55245 25-645 (rhesus entry)); assay: as above
T6 construct: also called cyno EGFR
Description: as §3, §4

[5] = target: T7, Mouse EGFR (recombinant, soluble monomeric) (mouse, UniProt Q01279 25-647); assay: as above
T7 construct: also called murine EGFR
Description: as §3, §4

[6] = target: T8, Human cMET (recombinant, soluble monomeric) (human, UniProt P08581 25-932); assay: as above
T8 construct: also called His-tagged cMET antigen
T8 sequence (P08581 25-932): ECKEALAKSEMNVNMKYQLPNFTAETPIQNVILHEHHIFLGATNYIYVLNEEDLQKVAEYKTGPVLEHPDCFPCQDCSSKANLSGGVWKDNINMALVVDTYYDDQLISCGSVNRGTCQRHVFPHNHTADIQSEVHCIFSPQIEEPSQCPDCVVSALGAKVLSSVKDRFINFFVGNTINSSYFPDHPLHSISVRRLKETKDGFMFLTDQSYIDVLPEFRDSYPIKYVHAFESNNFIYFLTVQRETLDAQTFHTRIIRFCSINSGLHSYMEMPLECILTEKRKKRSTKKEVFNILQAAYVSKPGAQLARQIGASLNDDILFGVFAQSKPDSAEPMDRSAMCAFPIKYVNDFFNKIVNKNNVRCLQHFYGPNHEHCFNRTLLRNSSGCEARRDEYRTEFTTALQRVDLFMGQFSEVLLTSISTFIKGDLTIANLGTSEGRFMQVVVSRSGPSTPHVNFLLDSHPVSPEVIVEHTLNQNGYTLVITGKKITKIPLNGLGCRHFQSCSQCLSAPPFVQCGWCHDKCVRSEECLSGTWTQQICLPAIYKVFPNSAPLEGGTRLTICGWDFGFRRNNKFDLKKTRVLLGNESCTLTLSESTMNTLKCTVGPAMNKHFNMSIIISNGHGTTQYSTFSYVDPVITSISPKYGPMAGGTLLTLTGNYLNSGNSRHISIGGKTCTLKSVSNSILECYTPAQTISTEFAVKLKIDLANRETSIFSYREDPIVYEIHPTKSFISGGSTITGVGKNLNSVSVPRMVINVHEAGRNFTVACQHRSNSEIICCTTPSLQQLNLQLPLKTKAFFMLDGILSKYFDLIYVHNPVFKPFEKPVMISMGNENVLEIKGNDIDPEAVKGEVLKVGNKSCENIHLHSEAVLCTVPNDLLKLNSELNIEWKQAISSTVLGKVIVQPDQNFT
Description: as §3, §4

[7] = target: T4, Cynomolgus monkey cMET (recombinant, …); assay: ELISA, antigen coated at 1 ug/mL, anti-human Fab-HRP detection, A450
Description: as §1, §2

[8] = target: T8, Human cMET (recombinant, soluble …); assay: as above
Description: as §1, §2

Binder | binding result (Mouse cMET (recombinant)) | binding result (HER2) | binding result (HER3) | binding result (HER4) | Kd [3] | koff [3] | kon [3] | Kd [4] | koff [4] | kon [4] | Kd [5] | koff [5] | kon [5] | binding result [7] | binding result [8] | other results
RAA22/R347-AZ1508 (bispecific antibody, part only; not given: R347 control arm and constant regions, V domains shown, part only) VH: QVQLVQSGAEVKKPGSSVKVSCKASGGTFSDNDFSWVRQAPGQGLEWMGAIVAVFRTETYAQKFQDRVKITADISTRTTYMELSSLRSEDTAVYYCARRLMSAISGPGAPLLMWGQGTLVTVSS VL: QSALTQPRSVSGSPGQSVTISCTGTSSDVGGYNYVSWYQQHPGKAPKLMIYDVSKRPSGVPDRFSGSKSGNTASLTISGLQAEDEADYYCSSYTSSDTLEIFGGGTKLTVL |  |  |  |  |  |  |  |  |  |  |  |  |  |  |  | IC50, CellTiter-Glo cytotoxicity on NCI H1975 cells (FIG. 11) [1]: 20.5 nM; fold difference in IC50 against the bispecific EGFR-cMET ADC [1]: 65 fold
QD6/B09-57 DuetMab (bispecific antibody, human IgG1, kappa, lambda, Monovalent bispecific IgG1 DuetMab with cysteine insertion after Ser239; Labelled with AlexaFluor-647 in the microscopy experiments; also called QD06/B09-57; bispecific EGFR/cMET DuetMAb) heavy 1: QVQLVQSGAEVKKPGSSVKVSCKASGGTFSDNDFSWVRQAPGQGLEWMGAIVAVVRTETYAQKFQDRVKITADISTRTTYMELSSLRSEDTAVYYCARRLMSAISGPGAPLLMWGQGTLVTVSSASTKGPSVFPLAPSSKSTSGGTAALGCLVKDYFPEPVTVSWNSGALTSGVHTFPAVLQSSGLYSLSSVVTVPSSSLGTQTYICNVNHKPSNTKVDKRVEPKSCDKTHTCPPCPAPELLGGPSCVFLFPPKPKDTLMISRTPEVTCVVVDVSHEDPEVKFNWYVDGVEVHNAKTKPREEQYNSTYRVVSVLTVLHQDWLNGKEYKCKVSNKALPAPIEKTISKAKGQPREPQVCTLPPSREEMTKNQVSLSCAVKGFYPSDIAVEWESNGQPENNYKTTPPVLDSDGSFFLVSKLTVDKSRWQQGNVFSCSVMHEALHNHYTQKSLSLSPGK light 1: QSALTQPRSVSGSPGQSVTISCTGTSSDVGGYNYVSWYQQHPGKAPKLMIYDVSERPSGVPDRFSGSKSGNTASLTISGLQAEDEADYYCFSYTSSDTLEIFGGGTKLTVLGQPKAAPSVTLFPPSSEELQANKATLVCLISDFYPGAVTVAWKADSSPVKAGVETTTPSKQSNNKYAASSYLSLTPEQWKSHRSYSCQVTHEGSTVEKTVAPTECS heavy 2: QVQLVQSGAEVKKPGASVKVSCKASGYTFTDYYIHWVRQATGQGLEWMGWMNPNSGNTGYAQKFQGRVTMTRDTSISTAYMELSSLRSEDTAVYYCARGQGYTHSWGQGTMVTVSSASTKGPSVCPLAPSSKSTSGGTAALGCLVKDYFPEPVTVSWNSGALTSGVHTFPAVLQSSGLYSLSSVVTVPSSSLGTQTYICNVNHKPSNTKVDKRVEPKSVDKTHTCPPCPAPELLGGPSCVFLFPPKPKDTLMISRTPEVTCVVVDVSHEDPEVKFNWYVDGVEVHNAKTKPREEQYNSTYRVVSVLTVLHQDWLNGKEYKCKVSNKALPAPIEKTISKAKGQPREPQVYTLPPCREEMTKNQVSLWCLVKGFYPSDIAVEWESNGQPENNYKTTPPVLDSDGSFFLYSKLTVDKSRWQQGNVFSCSVMHEALHNHYTQKSLSLSPG light 2: DIQMTQSPSTLSASVGDRVTITCRASEGIYHWLAWYQQKPGKAPKLLIYKASSLASGVPSRFSGSGSGTEFTLTISSLQPDDFATYYCQQYSNYPPTFGGGTKLEIKRTVAAPSVFIFPPCDEQLKSGTASVVCLLNNFYPREAKVQWKVDNALQSGNSQESVTEQDSKDSTYSLSSTLTLSKADYEKHKVYACEVTHQGLSSPVTKSFNRGEV | no binding (tested: 10 ug/ml) | no binding (tested: 10 ug/ml) | no binding (tested: 10 ug/ml) | no binding (tested: 10 ug/ml) | 5.9 nM | 0.000374 s⁻¹ | 63500 M⁻¹ s⁻¹ | 2.8 nM | 0.000585 s⁻¹ | 210000 M⁻¹ s⁻¹ | 6.2 nM | 0.00078 s⁻¹ | 126000 M⁻¹ s⁻¹ |  |  | Kd [2]: 2.2 nM; koff [2]: 0.00206 s⁻¹; kon [2]: 958000 M⁻¹ s⁻¹; Kd [6]: 1.6 nM; koff [6]: 0.000696 s⁻¹; kon [6]: 425000 M⁻¹ s⁻¹
RAA22 IgG (antibody, V domains shown, Bivalent parental IgG; Only the variable domains are tied to the parental IgG; also called anti-EGFR antibody clone RAA22) VH: QVQLVQSGAEVKKPGSSVKVSCKASGGTFSDNDFSWVRQAPGQGLEWMGAIVAVFRTETYAQKFQDRVKITADISTRTTYMELSSLRSEDTAVYYCARRLMSAISGPGAPLLMWGQGTLVTVSS VL: QSALTQPRSVSGSPGQSVTISCTGTSSDVGGYNYVSWYQQHPGKAPKLMIYDVSKRPSGVPDRFSGSKSGNTASLTISGLQAEDEADYYCSSYTSSDTLEIFGGGTKLTVL | no binding (tested: 10 ug/ml) | no binding (tested: 10 ug/ml) | no binding (tested: 10 ug/ml) | no binding (tested: 10 ug/ml) | 46.6 nM | 0.00206 s⁻¹ | 44100 M⁻¹ s⁻¹ | 170 nM | 0.00601 s⁻¹ | 35400 M⁻¹ s⁻¹ | 488 nM | 0.019 s⁻¹ | 40300 M⁻¹ s⁻¹ | no binding (tested: 10 ug/ml) | no binding (tested: 10 ug/ml) | 
QD6 IgG (antibody, V domains shown, Only variable domains are tied to the parental IgG; also called QD06; anti-EGFR antibody clone QD6) VH: QVQLVQSGAEVKKPGSSVKVSCKASGGTFSDNDFSWVRQAPGQGLEWMGAIVAVVRTETYAQKFQDRVKITADISTRTTYMELSSLRSEDTAVYYCARRLMSAISGPGAPLLMWGQGTLVTVSS VL: QSALTQPRSVSGSPGQSVTISCTGTSSDVGGYNYVSWYQQHPGKAPKLMIYDVSERPSGVPDRFSGSKSGNTASLTISGLQAEDEADYYCFSYTSSDTLEIFGGGTKLTVL | no binding (tested: 10 ug/ml) | no binding (tested: 10 ug/ml) | no binding (tested: 10 ug/ml) | no binding (tested: 10 ug/ml) | 2 nM | 0.000292 s⁻¹ | 148000 M⁻¹ s⁻¹ | 2.5 nM | 0.000288 s⁻¹ | 114000 M⁻¹ s⁻¹ | 4.4 nM | 0.000735 s⁻¹ | 167000 M⁻¹ s⁻¹ | no binding (tested: 10 ug/ml) | no binding (tested: 10 ug/ml) | 
